B1: P107 huMIF (natural protein, human, UniProt P14174 2-115, looked up)
chain: PMFIVNTNVPRASVPDGFLSELTQQLAQATGKPPQYIAVHVVPDQLMAFGGSSEPCALCSLHSIGKIGGAQNRSYSKLLCGLLAERLRISPDRVYINYYDMNAANVPGWNNSTFA
B2: ΔC10 huMIF(1-104) (domain or fragment, human, UniProt P14174 2-105, looked up)
chain: PMFIVNTNVPRASVPDGFLSELTQQLAQATGKPPQYIAVHVVPDQLMAFGGSSEPCALCSLHSIGKIGGAQNRSYSKLLCGLLAERLRISPDRVYINYYDMNAA
B3: Recombinant, soluble huMIF receptor ectodomain (sCD74 73-232) (domain or fragment, UniProt P04233-2 73-232, looked up)
chain: QQQGRLDKLTVTSQNLQLENLRMKLPKPPKPVSKMRMATPLLMQALPMGALPQGPMQNATKYGNMTEDHVMHLLQNADPLKVYPPLKGSFPENLRHLKNTMETIDWKVFESWMHHWLLFEMSRHSLEQKPTDAPPKESLELEDPSSGLGVTKQDLGPVPM
B4: ΔC5 huMIF(1-109) (domain or fragment, human, UniProt P14174 2-110, looked up)
chain: PMFIVNTNVPRASVPDGFLSELTQQLAQATGKPPQYIAVHVVPDQLMAFGGSSEPCALCSLHSIGKIGGAQNRSYSKLLCGLLAERLRISPDRVYINYYDMNAANVGWN

How the values were obtained:
[1] = molecular target: the molecule itself; assay: AUC
[2] = molecular target: B3; assay: ELISA
[3] = molecular target: Biotinylated huMIF (human, UniProt P14174 2-115, biotin (sites not given)); assay: ELISA

binding result [2]	binding result [3]	Binder	stoichiometry N [1]
–	–	B1	3
binds	–	B2	3
–	binds	B3	–
binds	–	B4	3
